The results in this text go back to paper PMC12790879.

For this experiment, the target named is RHT1‐GRAS (truncated DELLA protein containing only the C‐terminal GRAS domain) (wheat (Triticum turgidum ssp. durum, cultivar Kronos)). Description: two-hybrid; yeast-three-hybrid (Y3H), quantitative alpha-galactosidase activity; DELLA-GRAS as AD, SPL3 or SPL4 as BD, VRN1 or FUL2 expressed as third protein; Method S10.

In turn, “FUL2 expressed as the third protein in the yeast‐three‐hybrid system (natural protein)” gave a percent decrease of the DELLA-SPL3 interaction (m1 with m2) when expressed as third protein of 60% and a percent decrease of the DELLA-SPL4 interaction (m1 with m3) when expressed as third protein of 55%.
Substance “VRN1 expressed as the third protein in the yeast‐three‐hybrid system (natural protein)” yielded a percent decrease of the DELLA-SPL3 interaction (m1 with m2) when expressed as third protein of 48% and a percent decrease of the DELLA-SPL4 interaction (m1 with m3) when expressed as third protein of 36%.
